The target in this experiment is pertussis toxin (Bordetella pertussis, UniProt P04977 35-269; P04978 28-226; P04979 29-227; P0A3R5 43-152; P04981 35-133). The experiment is described as follows: ELISA, plate coated with pertussis toxin, antibody titrated, detection with goat anti-human kappa constant domain-HRP [panel C]. (In an ELISA, binding on a coated surface is turned into a signal by an enzyme label.)

B1: hu1B7 antibody (antibody, V domains shown)
VH: EVQLVESGGGLVQPGGSLRLSCAASGYKFTSYWMHWVRQAPGKGLEWVGNIFPGSGSTNYDEKFNSRFTISVDTSKNTAYLQMNSLRAEDTAVYYCTRWLSGAYFDYWGQGTLVTVSS
VL: DIQMTQSPSSLSASVGDRVTITCSASSSVSFMYWYQQKPGKAPKLLIYLTSNLPSGVPSRFSGFGSGTDYTLTISSLQPEDFATYYCQQWSSHPPTFGQGTKVEIK
By EC50 (read off the curve) is commonly meant the concentration at which the effect is half-maximal. The low end stands for higher potency in that assay, the high end for lower potency in that assay. For the molecule B1, the “EC50 (read off the curve)” value is about 0.05 µg/mL.

(Values after patent US20210332112A1 (University of Texas, published 2021).)
